The values that follow come from article PMC11507940 (bioRxiv, 2024).

Experiment [1] concerns the target Human recombinant fibroblast activation protein alpha (human) (UniProt Q12884). In words: cross-linking + other: mass photometry.
Experiment [2] deals with Biotinylated dipeptidyl peptidase IV (Homo sapiens, UniProt P27487, biotin). Kind of experiment: BLI.
Biotinylated dipeptidyl peptidase IV, sequence (P27487 39-766): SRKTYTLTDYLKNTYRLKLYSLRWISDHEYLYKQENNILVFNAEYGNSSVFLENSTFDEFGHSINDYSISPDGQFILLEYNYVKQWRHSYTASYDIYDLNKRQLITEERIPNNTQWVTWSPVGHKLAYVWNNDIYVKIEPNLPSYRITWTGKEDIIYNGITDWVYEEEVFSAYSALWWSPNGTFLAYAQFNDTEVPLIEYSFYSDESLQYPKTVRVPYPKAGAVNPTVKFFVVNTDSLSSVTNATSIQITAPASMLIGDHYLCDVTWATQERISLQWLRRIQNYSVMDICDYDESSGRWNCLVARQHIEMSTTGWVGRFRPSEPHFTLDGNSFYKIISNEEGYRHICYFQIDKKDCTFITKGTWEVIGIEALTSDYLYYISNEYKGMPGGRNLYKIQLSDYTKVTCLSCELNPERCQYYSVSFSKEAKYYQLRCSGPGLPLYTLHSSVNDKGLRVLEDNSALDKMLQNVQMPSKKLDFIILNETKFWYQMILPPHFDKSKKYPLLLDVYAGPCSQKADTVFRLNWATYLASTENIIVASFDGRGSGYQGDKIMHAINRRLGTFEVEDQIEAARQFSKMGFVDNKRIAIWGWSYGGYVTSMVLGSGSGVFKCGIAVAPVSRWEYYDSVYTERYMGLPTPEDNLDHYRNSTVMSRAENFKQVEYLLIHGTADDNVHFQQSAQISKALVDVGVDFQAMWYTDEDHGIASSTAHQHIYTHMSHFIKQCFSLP

Human recombinant fibroblast activation protein alpha (human), sequence (Q12884 39-757): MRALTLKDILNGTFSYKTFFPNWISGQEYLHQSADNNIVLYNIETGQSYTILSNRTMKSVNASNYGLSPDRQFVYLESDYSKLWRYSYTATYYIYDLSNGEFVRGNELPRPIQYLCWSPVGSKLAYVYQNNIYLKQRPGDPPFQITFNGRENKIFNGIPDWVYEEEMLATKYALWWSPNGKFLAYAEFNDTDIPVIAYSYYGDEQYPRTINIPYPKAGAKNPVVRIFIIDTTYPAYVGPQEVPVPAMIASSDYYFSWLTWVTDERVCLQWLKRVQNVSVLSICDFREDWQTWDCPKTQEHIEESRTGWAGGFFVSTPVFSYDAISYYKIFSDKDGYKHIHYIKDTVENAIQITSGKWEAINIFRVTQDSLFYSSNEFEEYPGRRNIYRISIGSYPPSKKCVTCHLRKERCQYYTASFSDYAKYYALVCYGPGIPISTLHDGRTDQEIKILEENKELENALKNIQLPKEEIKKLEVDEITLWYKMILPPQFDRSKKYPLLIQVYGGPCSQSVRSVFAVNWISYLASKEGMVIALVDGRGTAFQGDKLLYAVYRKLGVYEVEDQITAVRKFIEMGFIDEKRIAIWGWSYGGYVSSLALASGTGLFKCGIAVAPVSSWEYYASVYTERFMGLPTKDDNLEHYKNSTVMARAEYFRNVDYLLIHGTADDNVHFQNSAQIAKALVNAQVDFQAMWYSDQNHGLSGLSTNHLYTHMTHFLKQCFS

B1: SUMO-I3 (single domain antibody I3 fused to an N-terminal 6X His-SUMO-FLAG tag) (VHH)
VHH: EVQLVESGGGLVQPGGSLRLSCAASGFTFSSYAMSWVRQAPGKGLEWVSAINSGGGSTSYADSVKGRFTISRDNAKNTLYLQMNSLKPEDTAVYYCAKARTGWSLAVPSFGSWGQGTQVTVSS
On to B1, for which the stoichiometry N in experiment [1] is 1.

B2: MBP-I3 (single domain antibody I3 with an N-terminal MBP fusion and a C-terminal 6X His-tag) (VHH)
VHH: B1 VHH
As to B2, in experiment [2], the binding result was “no binding (tested: 10 μM)”.
